Experimental data reported in paper PMC6617973, “RAF dimers control vascular permeability and cytoskeletal rearrangements at endothelial cell‐cell junctions” (The Febs Journal, 2019).

Target: T1, RAF1 (endogenous, pMECs) (mouse (endogenous in pMECs), UniProt Q99N57 1-648)
T1 construct: RAF1 kinase, endogenous in primary mouse endothelial cells; source: endogenous, pMEC lysate
Test: co-IP; RAF1 immunoprecipitates from lysates of F/F and BRAFΔ/Δ pMEC monolayers; Protein G Sepharose with antibody, 4 °C overnight; 25 mM HEPES, 150 mM NaCl, 1 mM EGTA, 0.5% NP-40, 10% glycerol; immunoblot
Details: partners not purified

fold increase of the co-precipitate in BRAF-deficient against F/F pMECs: 3 fold
B1: RHO‐dependent kinase α (enzyme, mouse (endogenous in pMECs), UniProt P70336 1-1388, looked up)
chain: MSRPPPTGKMPGAPEAAPGDGAGAGRQRKLEALIRDPRSPINVESLLDGLNSLVLDLDFPALRKNKNIDNFLNRYEKIVKKIRGLQMKAEDYDVVKVIGRGAFGEVQLVRHKASQKVYAMKLLSKFEMIKRSDSAFFWEERDIMAFANSPWVVQLFCAFQDDRYLYMVMEYMPGGDLVNLMSNYDVPEKWAKFYTAEVVLALDAIHSMGLIHRDVKPDNMLLDKHGHLKLADFGTCMKMDETGMVHCDTAVGTPDYISPEVLKSQGGDGYYGRECDWWSVGVFLFEMLVGDTPFYADSLVGTYSKIMDHKNSLCFPEDTEISKHAKNLICAFLTDREVRLGRNGVEEIKQHPFFKNDQWNWDNIRETAAPVVPELSSDIDSSNFDDIEDDKGDVETFPIPKAFVGNQLPFIGFTYFRENLLLSDSPPCRENDAIQTRKSEESQEIQKKLYALEEHLSSEVQAKEELEQKCKSINTRLEKTAKELEEEITLRKSVESTLRQLEREKALLQHKNAEYQRKADHEADKKRNLENDVNSLKDQLEDLKKRNQSSQISTEKVNQLQKQLDEANALLRTESDTAARLRKTQAESSKQIQQLESNNRDLQDKNCLLETAKLKLEKEFINLQSALESERRDRTHGSEIINDLQGRISGLEEDLKTGKALLAKVELEKRQLQEKLTDLEKEKSNMEIDMTYQLKVIQQSLEQEEAEHKTTKARLADKNKIYESIEEAKSEAMKEMEKKLLEERSLKQKVENLLLEAEKRCSILDCDLKQSQQKLNELLKQKDVLNEDVRNLTLKIEQETQKRCLMQNDLKMQTQQVNTLKMSEKQIKQENNHLMEMKMNLEKQNTELRKERQDADGQMKELQDQLEAEQYFSTLYKTQVRELKEENEEKTKLCKELQQKKQDLQDERDSLAAQLEITLTKADSEQLARSIAEEQYSDLEKEKIMKELEIKEMMARHKQELTEKDTTIASLEETNRTLTSDVANLANEKEELNNKLKDSQEQLSKLKDEEMSAAAIKAQFEKQLLNERTLKTQAVNKLAEIMNRKEPVKRGSDTDVRRKEKENRKLHMELKSEREKLTQQMIKYQKELNEMQAQIAEESQIRIELQMTLDSKDSDIEQLRSQLQALHIGMDSSSIGSGPGDAEPDDGFPESRLEGWLSLPVRNNTKKFGWVKKYVIVSSKKILFYDSEQDKEQSNPYMVLDIDKLFHVRPVTQTDVYRADAKEIPRIFQILYANEGESKKEPEFPVEPVGEKSNYICHKGHEFIPTLYHFPTNCEACMKPLWHMFKPPPALECRRCHIKCHKDHMDKKEEIIAPCKVYYDISSAKNLLLLANSTEEQQKWVSRLVKKIPKKPPAPDPFARSSPRTSMKIQQNQSIRRPSRQLAPNKPS
notes: ROKalpha (ROCK2), endogenous in primary mouse endothelial cells; also called ROKα; ROK; source: endogenous, pMEC lysate
